Results from patent US20260207704A1, “STAPLED PEPTIDES AND METHODS THEREOF” (priority 2022, published 2026).
*1 amine or outer side, *2 acyl side, *3 side chain or, on linkers, in order; H or OH if unused. Bridges are numbered along the chain shown (N, C = ends). Primed or numbered codes have the meaning given here. [ ]: non-standard residue; d: D form. PyrS2(6) = (S)-3-amino-1-((pent-4-en-1-yloxy)carbonyl)pyrrolidine-3-carboxylic acid, stapled with another olefin-containing amino acid residue through the olefin group, O=C(OCCCC=[*:3])N1CC[C@@](N[*:1])(C(=O)[*:2])C1; B5(4) = 2-amino-2-(pent-4-en-1-yl)hept-6-enoic acid, stapled through each of its two olefin groups with other olefin-containing amino acid residues, O=C(C(CCCC=[*:3])(CCCC=[*:4])N[*:1])[*:2]; PyrS2″ = (S)-3-amino-1-((pent-4-en-1-yloxy)carbonyl)pyrrolidine-3-carboxylic acid (olefin stapling residue), C=CCCCOC(=O)N1CC[C@@](N[*:1])(C(=O)[*:2])C1; PyrS2 = (S)-3-amino-1-((pent-4-en-1-yloxy)carbonyl)pyrrolidine-3-carboxylic acid, olefin staple residue, C=CCCCOC(=O)N1CC[C@@](N[*:1])(C(=O)[*:2])C1; PyrS2(3) = (S)-3-amino-1-((pent-4-en-1-yloxy)carbonyl)pyrrolidine-3-carboxylic acid, olefin residue, C=CCCCOC(=O)N1CC[C@@](N[*:1])(C(=O)[*:2])C1; TriAzLys = (S)-2-amino-5-(1H-1,2,3-triazol-1-yl)pentanoic acid, stapled through triazole 4-position, O=C([C@H](CCCn1cc([*:3])nn1)N[*:1])[*:2]; PyrS2(5) = (S)-3-amino-1-((pent-4-en-1-yloxy)carbonyl)pyrrolidine-3-carboxylic acid, C=CCCCOC(=O)N1CC[C@@](N[*:1])(C(=O)[*:2])C1; B5″ = 2-amino-2-(pent-4-en-1-yl)hept-6-enoic acid (bis-olefin stapling residue), C=CCCCC(CCCC=C)(N[*:1])C(=O)[*:2]; B5(5) = 2-amino-2-(pent-4-en-1-yl)hept-6-enoic acid (two olefin arms), C=CCCCC(CCCC=C)(N[*:1])C(=O)[*:2]; B5(3) = 2-amino-2-(pent-4-en-1-yl)hept-6-enoic acid, two olefin arms, C=CCCCC(CCCC=C)(N[*:1])C(=O)[*:2]; TriAzLys″ = azidolysine residue closed into triazole staple, O=C([C@H](CCCCn1cc([*:3])nn1)N[*:1])[*:2]; Phe(3-COOH) = N[C@@H](Cc1cccc(C(=O)O)c1)C(=O)O; 2F3MeF = Cc1cccc(C[C@H](N[*:1])C(=O)[*:2])c1F; Abu(4-yl) = O=C([C@H](CC[*:3])N[*:1])[*:2]; Bta = N[C@@H](Cc1csc2ccccc12)C(=O)O; αAllylPro = C=CC[C@@]1(C(=O)O)CCCN1; tBuAla = CC(C)(C)C[C@H](N)C(=O)O; 3Thi = N[C@@H](Cc1ccsc1)C(=O)O; TriAzLys(3) = not defined here; PyrS2(4) = not defined here; 2F3MeF(4) = Phe analogue; dGlnR = not defined here; GlnR = not defined here; sAla = not defined here; PL3 = not defined here; B5 = not defined here; Aib = CC(C)(N)C(=O)O

Columns and labels:
[1] = target: beta-catenin (human); assay: cell-based or functional assay
[2] = target: beta-catenin (human); assay: fluorescence polarization

Chain of beta-catenin (human) (B6V8E6 146-665 limits assumed): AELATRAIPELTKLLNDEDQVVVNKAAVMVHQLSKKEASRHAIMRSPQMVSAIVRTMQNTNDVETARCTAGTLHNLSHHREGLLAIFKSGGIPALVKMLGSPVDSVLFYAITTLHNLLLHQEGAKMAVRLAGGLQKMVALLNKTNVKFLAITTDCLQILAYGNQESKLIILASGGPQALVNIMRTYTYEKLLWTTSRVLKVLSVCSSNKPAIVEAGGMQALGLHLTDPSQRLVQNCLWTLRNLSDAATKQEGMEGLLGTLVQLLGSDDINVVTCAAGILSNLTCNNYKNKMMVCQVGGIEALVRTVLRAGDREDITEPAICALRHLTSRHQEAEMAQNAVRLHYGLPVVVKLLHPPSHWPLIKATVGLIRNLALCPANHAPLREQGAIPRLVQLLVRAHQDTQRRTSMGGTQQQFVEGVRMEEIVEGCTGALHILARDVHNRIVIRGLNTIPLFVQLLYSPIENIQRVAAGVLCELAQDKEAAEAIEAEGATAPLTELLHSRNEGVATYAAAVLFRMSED

Row | Binder | NanoBRET Abs IC50 (bin >3.0 uM) [1] [µM] | IC50 [2] [µM] | NanoBRET Abs IC50 [1] [µM] | other results
1 | Ac-[αAllylPro]D[tBuAla][B5(4)]D[Phe(3-COOH)]AAF[sAla][PyrS2(6)][2F3MeF(4)][Bta][TriAzLys(3)]-NH2 (triazole 10-14; not fully specified (bridges); printed as Ac-PL3-Asp-Npg-B5-Asp-3COOHF-Ala-Ala-Phe-sAla*3-PyrS2-2F3MeF-BztA-TriAzLys*3-NH2; reading uncertain) [I-25] | < 10 | < 0.05 | – | –
2 | XDLXDDQAFKXXXQ (not fully specified; Ac-PL3-Asp-Leu-B5-Asp-Asp-GlnR*3-Ala-Phe-Lys*3-PyrS2-3Thi-BztA-Gln-NH2) [I-8] | – | < 0.05 | > 10 | –
3 | Ac-[PL3]D[tBuAla][B5(4)]D[Phe(3-COOH)]AAF[TriAzLys″][PyrS2″][2F3MeF][Bta][sAla]-NH2 (triazole 10-14; not fully specified (bridges); printed as Ac-PL3-Asp-Npg-B5-Asp-3COOHF-Ala-Ala-Phe-TriAzLys*3-PyrS2-2F3MeF-BztA-sAla*3-NH2; reading uncertain) [I-21] | – | < 0.05 | – | NanoBRET Abs IC50 (bin >1.5 uM) [1]: < 3 µM
4 | Ac-[PL3]DL[B5]D[Phe(3-COOH)]AAFK[PyrS2(4)][3Thi][Bta][GlnR]-NH2 (staple 1-4; bridge 10-14; reading uncertain; also: PyrS2 tied into a staple, partner not placed, printed as Ac-PL3-Asp-Leu-B5-Asp-3COOHF-Ala-Ala-Phe-Lys*3-PyrS2-3Thi-BztA-GlnR*3-NH2) [I-11] | – | < 0.05 | – | NanoBRET Abs IC50 (bin >1.5 uM) [1]: < 3 µM
5 | Ac-[αAllylPro]DL[B5″]D[Phe(3-COOH)]AAF[GlnR][PyrS2″][3Thi][Bta]K-NH2 (bridge 10-14; reading uncertain; also: PL3-B5 and PyrS2 links not placed, printed as Ac-PL3-Asp-Leu-B5-Asp-3COOHF-Ala-Ala-Phe-GlnR*3-PyrS2-3Thi-BztA-Lys*3-NH2) [I-15] | – | < 0.05 | – | NanoBRET Abs IC50 (bin >1.5 uM) [1]: < 3 µM
6 | Ac-[αAllylPro]DL[B5(4)]D[Phe(3-COOH)]AAF[dGlnR][PyrS2(5)][3Thi][Bta]K-NH2 (bridge 10-14; not fully specified (bridges); printed as Ac-PL3-Asp-Leu-B5-Asp-3COOHF-Ala-Ala-Phe-DGlnR*3-PyrS2-3Thi-BztA-Lys*3-NH2; reading uncertain; also: DGlnR10 and Lys14 marked *3) [I-14] | < 10 | < 0.05 | – | –
7 | Ac-[PL3]D[tBuAla][B5(4)]D[Phe(3-COOH)]AAF[TriAzLys″][PyrS2″][3Thi][Bta][sAla]-NH2 (triazole 10-14; not fully specified (bridges); printed as Ac-PL3-Asp-Npg-B5-Asp-3COOHF-Ala-Ala-Phe-TriAzLys*3-PyrS2-3Thi-BztA-sAla*3-NH2; reading uncertain) [I-19] | < 10 | < 0.05 | – | –
8 | Ac-[αAllylPro]D[tBuAla][B5″]DDAAF[TriAzLys][PyrS2″][3Thi][Bta][Abu(4-yl)]-NH2 (triazole 10-14; also: PL3-B5 and PyrS2 links not placed) [I-17] | – | < 0.05 | > 10 | –
9 | Ac-[αAllylPro]DL[B5″]D[Phe(3-COOH)]AAFK[PyrS2″][3Thi][Bta][GlnR]-NH2 (bridge 10-14; not fully specified (bridges); printed as Ac-PL3-Asp-Leu-B5-Asp-3COOHF-Ala-Ala-Phe-Lys*3-PyrS2-3Thi-BztA-GlnR*3-NH2; reading uncertain; also: Lys*3 and GlnR*3 marked *3) [I-12] | < 10 | < 0.05 | – | –
10 | Ac-[αAllylPro]D[tBuAla][B5]D[Phe(3-COOH)][Aib]AFK[PyrS2][3Thi][Bta][GlnR]A-NH2 (staple 1-4, 4-11; lactam 10-14; not fully specified; printed as Ac-PL3-Asp-Npg-B5-Asp-3COOHF-Aib-Ala-Phe-Lys*3-PyrS2-3Thi-BztA-GlnR*3-Ala-NH2; reading uncertain) [I-66] | – | < 0.05 | – | AXIN2 expression IC50, COLO320DM cells [1]: 0.3 µM; AXIN2 expression IC50, DLD1 cells [1]: 1.6 µM; SP5 expression IC50, DLD1 cells [1]: 1.3 µM
11 | Ac-[αAllylPro]DL[B5(4)]D[Phe(3-COOH)]AAF[dGlnR][PyrS2″][3Thi][Bta]K-NH2 (bridge 10-14; not fully specified (bridges); printed as Ac-PL3-Asp-Leu-B5-Asp-3COOHF-Ala-Ala-Phe-DGlnR*3-PyrS2-3Thi-BztA-Lys*3-NH2; reading uncertain; also: DGlnR*3 and Lys*3 marked *3) [I-13] | < 10 | < 0.05 | – | –
12 | Ac-[αAllylPro]D[tBuAla][B5(4)]D[Phe(3-COOH)][TriAzLys(3)]AF[sAla][PyrS2(6)][3Thi][Bta]Q-NH2 (triazole 7-10; not fully specified (bridges); printed as Ac-PL3-Asp-Npg-B5-Asp-3COOHF-TriAzLys*3-Ala-Phe-sAla*3-PyrS2-3Thi-BztA-Gln-NH2; reading uncertain) [I-30] | – | < 0.05 | > 10 | –
13 | Ac-[PL3]D[tBuAla][B5(4)]DDAAF[sAla][PyrS2″][3Thi][Bta][TriAzLys″]-NH2 (triazole 10-14; not fully specified (bridges); printed as Ac-PL3-Asp-Npg-B5-Asp-Asp-Ala-Ala-Phe-sAla*3-PyrS2-3Thi-BztA-TriAzLys*3-NH2; reading uncertain) [I-23] | < 10 | < 0.05 | – | –
14 | Ac-[αAllylPro]DL[B5″]D[Phe(3-COOH)]AAF[GlnR][PyrS2″][3Thi][Bta]K-NH2 (bridge 10-14; reading uncertain; also: PL3-B5 and PyrS2 links not placed, printed as Ac-PL3-Asp-Leu-B5-Asp-3COOHF-Ala-Ala-Phe-GlnR*3-PyrS2-3Thi-BztA-Lys*3-NH2) [I-16] | < 10 | < 0.05 | – | –
15 | Ac-[αAllylPro]D[tBuAla][B5(4)]D[Phe(3-COOH)]AAF[sAla][PyrS2(6)][3Thi][Bta][TriAzLys(3)]-NH2 (triazole 10-14; not fully specified (bridges); printed as Ac-PL3-Asp-Npg-B5-Asp-3COOHF-Ala-Ala-Phe-sAla*3-PyrS2-3Thi-BztA-TriAzLys*3-NH2; reading uncertain) [I-24] | < 10 | < 0.05 | – | –
16 | Ac-[PL3]DL[B5]D[Phe(3-COOH)]AAFK[PyrS2(4)][3Thi][Bta][GlnR]-NH2 (staple 1-4; bridge 10-14; not fully specified (residue 10); printed as Ac-PL3-Asp-Leu-B5-Asp-3COOHF-Ala-Ala-Phe-dLys*3-PyrS2-3Thi-BztA-GlnR*3-NH2; reading uncertain; also: PyrS2 tied into a staple, partner not placed) [I-10] | – | < 0.05 | > 10 | –
17 | Ac-[αAllylPro]DL[B5(3)]DDKAF[GlnR][PyrS2(3)][3Thi][Bta]Q-NH2 (bridge 7-10; not fully specified (bridges); printed as Ac-PL3-Asp-Leu-B5-Asp-Asp-Lys*3-Ala-Phe-GlnR*3-PyrS2-3Thi-BztA-Gln-NH2; reading uncertain) [I-7] | – | < 0.05 | > 10 | –
18 | Ac-[αAllylPro]E[tBuAla][B5(5)]E[Phe(3-COOH)][Aib]AFK[PyrS2(5)][3Thi][Bta][GlnR]A-NH2 (bridge 10-14; not fully specified (bridges); printed as Ac-PL3-Glu-Npg-B5-Glu-3COOHF-Aib-Ala-Phe-Lys*3-PyrS2-3Thi-BztA-GlnR*3-Ala-NH2; reading uncertain) [I-470] | – | > 1 | > 10 | –
19 | Ac-[αAllylPro]D[tBuAla][B5(4)]DD[TriAzLys(3)]AF[sAla][PyrS2(6)][3Thi][Bta]Q-NH2 (triazole 7-10; not fully specified (bridges); printed as Ac-PL3-Asp-Npg-B5-Asp-Asp-TriAzLys*3-Ala-Phe-sAla*3-PyrS2-3Thi-BztA-Gln-NH2; reading uncertain) [I-29] | – | < 0.05 | > 10 | –
20 | XDLXDDAAFQXXXK (not fully specified; Ac-PL3-Asp-Leu-B5-Asp-Asp-Ala-Ala-Phe-GlnR*3-PyrS2-3Thi-BztA-Lys*3-NH2) [I-6] | – | < 0.05 | > 10 | –
